System: Escherichia coli TOP10
Experiment: shrunken log2 fold change of peptide-encoding DNA abundance (4.5 h post-induction vs induction); higher = less antimicrobial activity (less host growth inhibition)
Conditions: time post-induction: 4.5 h; library: site-saturation at positions 5, 18, 19, 20
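Also: peptides expressed intracellularly from a pBAD plasmid library in pooled LB shake-flask culture, induced with 0.3% L-arabinose, DNA abundance read by NGS, three biological replicates, DESeq2 with apeglm shrinkage.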

Row | Sequence | shrunken log2 fold change
1 | RRIRNRPPRLPRPRPRPFSMPRP | -0.00235
2 | RRIRPRPPRLPRPRPRPRCNPRP | -0.0415
3 | RRIRGRPPRLPRPRPRPVLVPRP | 0.628
4 | RRIRQRPPRLPRPRPRPHTGPRP | -0.18
5 | RRIRWRPPRLPRPRPRPLELPRP | 0.106
6 | RRIRRRPPRLPRPRPRPFNVPRP | -0.264
7 | RRIRLRPPRLPRPRPRPEWVPRP | 0.36
8 | RRIRIRPPRLPRPRPRPYYTPRP | -0.389
9 | RRIRTRPPRLPRPRPRPHQPPRP | -0.0196
10 | RRIRMRPPRLPRPRPRPYDDPRP | -0.00329
11 | RRIRIRPPRLPRPRPRPKKPPRP | 0.0487
12 | RRIRLRPPRLPRPRPRPCSFPRP | -0.051
13 | RRIRLRPPRLPRPRPRPKGCPRP | -0.0474
14 | RRIRDRPPRLPRPRPRPFYSPRP | -0.304
15 | RRIRNRPPRLPRPRPRPVFFPRP | -0.223
16 | RRIRCRPPRLPRPRPRPGMQPRP | -0.255
17 | RRIRWRPPRLPRPRPRPMKIPRP | -0.0129
18 | RRIRCRPPRLPRPRPRPPQHPRP | 0.49
19 | RRIRMRPPRLPRPRPRPYIHPRP | -0.262
20 | RRIRGRPPRLPRPRPRPRIAPRP | 0.519
21 | RRIRVRPPRLPRPRPRPAVPPRP | 0.0151
22 | RRIRMRPPRLPRPRPRPHVHPRP | 0.0308
23 | RRIRSRPPRLPRPRPRPNYFPRP | -0.828
24 | RRIRDRPPRLPRPRPRPFFTPRP | -0.024
25 | RRIRLRPPRLPRPRPRPWSAPRP | 0.539

Row | Sequence | shrunken log2 fold change
26 | RRIRARPPRLPRPRPRPVMAPRP | 0.567
27 | RRIRQRPPRLPRPRPRPIHWPRP | -0.198
28 | RRIRIRPPRLPRPRPRPPLMPRP | -0.16
29 | RRIRVRPPRLPRPRPRPMLSPRP | -0.0455
30 | RRIRGRPPRLPRPRPRPLPQPRP | 0.927
31 | RRIRNRPPRLPRPRPRPMYDPRP | 0.0456
32 | RRIRTRPPRLPRPRPRPAMGPRP | 0.391
33 | RRIRRRPPRLPRPRPRPAYQPRP | -0.289
34 | RRIRWRPPRLPRPRPRPWMTPRP | 0.333
35 | RRIRVRPPRLPRPRPRPVAVPRP | -0.05
36 | RRIRPRPPRLPRPRPRPIHNPRP | -0.569
37 | RRIRHRPPRLPRPRPRPSDKPRP | -0.355
38 | RRIRPRPPRLPRPRPRPFKSPRP | -0.222
39 | RRIRHRPPRLPRPRPRPKMKPRP | -0.232
40 | RRIRQRPPRLPRPRPRPGVIPRP | 0.0679
41 | RRIRFRPPRLPRPRPRPTPWPRP | 0.421
42 | RRIRFRPPRLPRPRPRPMFNPRP | -0.797
43 | RRIRMRPPRLPRPRPRPNSRPRP | 0.169
44 | RRIRQRPPRLPRPRPRPNWPPRP | 0.192
45 | RRIRYRPPRLPRPRPRPRGFPRP | -0.0875
46 | RRIRVRPPRLPRPRPRPFADPRP | -0.0225
47 | RRIRFRPPRLPRPRPRPFFNPRP | -0.313
48 | RRIRFRPPRLPRPRPRPDNCPRP | -0.0284
49 | RRIRGRPPRLPRPRPRPWLWPRP | 0.0131
50 | RRIRYRPPRLPRPRPRPPGFPRP | 0.184

Row | Sequence | shrunken log2 fold change
51 | RRIRCRPPRLPRPRPRPVMQPRP | -0.166
52 | RRIRDRPPRLPRPRPRPCGIPRP | 0.0258
53 | RRIRMRPPRLPRPRPRPYHMPRP | -0.000687
54 | RRIRMRPPRLPRPRPRPAYDPRP | -0.0572
55 | RRIRARPPRLPRPRPRPWDPPRP | 0.496
56 | RRIRERPPRLPRPRPRPEPSPRP | 0.0429
57 | RRIRNRPPRLPRPRPRPYPCPRP | -0.00822
58 | RRIRARPPRLPRPRPRPDPMPRP | 1.02
59 | RRIRNRPPRLPRPRPRPLLIPRP | 0.589
60 | RRIRLRPPRLPRPRPRPYHGPRP | -0.278
61 | RRIRCRPPRLPRPRPRPHPVPRP | -0.207
62 | RRIRGRPPRLPRPRPRPKMPPRP | 0.434
63 | RRIRNRPPRLPRPRPRPAKGPRP | -0.051
64 | RRIRERPPRLPRPRPRPSWMPRP | -0.416
65 | RRIRIRPPRLPRPRPRPGAFPRP | -0.294
66 | RRIRNRPPRLPRPRPRPNEIPRP | 0.145
67 | RRIRTRPPRLPRPRPRPWKCPRP | -0.0161
68 | RRIRMRPPRLPRPRPRPSPTPRP | 1.15
69 | RRIRARPPRLPRPRPRPHNYPRP | -0.303
70 | RRIRSRPPRLPRPRPRPMPIPRP | -0.109
71 | RRIRPRPPRLPRPRPRPNGLPRP | 0.015
72 | RRIRQRPPRLPRPRPRPHAAPRP | 0.465
73 | RRIRHRPPRLPRPRPRPPCCPRP | -0.0551
74 | RRIRCRPPRLPRPRPRPDQLPRP | 0.101
75 | RRIRARPPRLPRPRPRPCIQPRP | 0.151

Row | Sequence | shrunken log2 fold change
76 | RRIRKRPPRLPRPRPRPPTTPRP | 0.452
77 | RRIRERPPRLPRPRPRPGFMPRP | -0.136
78 | RRIRHRPPRLPRPRPRPLYVPRP | -0.272
79 | RRIRNRPPRLPRPRPRPSVRPRP | -0.00578
80 | RRIRKRPPRLPRPRPRPRWHPRP | 0.0132
81 | RRIRRRPPRLPRPRPRPKLTPRP | 0.0538
82 | RRIRKRPPRLPRPRPRPAYWPRP | 0.424
83 | RRIRTRPPRLPRPRPRPWAFPRP | -0.185
84 | RRIRIRPPRLPRPRPRPHVMPRP | -0.492
85 | RRIRCRPPRLPRPRPRPCFSPRP | -0.344
86 | RRIRPRPPRLPRPRPRPARDPRP | 0.208
87 | RRIRRRPPRLPRPRPRPRQDPRP | 0.274
88 | RRIRPRPPRLPRPRPRPWFSPRP | -0.255
89 | RRIRDRPPRLPRPRPRPCYAPRP | 0.326
90 | RRIRQRPPRLPRPRPRPGHQPRP | -0.00101
91 | RRIRIRPPRLPRPRPRPDYPPRP | -0.584
92 | RRIRSRPPRLPRPRPRPPEHPRP | 0.169
93 | RRIRRRPPRLPRPRPRPIHLPRP | -0.0465
94 | RRIRLRPPRLPRPRPRPTTSPRP | -0.0271
95 | RRIRSRPPRLPRPRPRPFVRPRP | 0.0631
96 | RRIRLRPPRLPRPRPRPCWGPRP | 0.00437
97 | RRIRTRPPRLPRPRPRPVYQPRP | -0.0843
98 | RRIRFRPPRLPRPRPRPMPYPRP | -0.218
99 | RRIRMRPPRLPRPRPRPAFTPRP | 0.251
100 | RRIRFRPPRLPRPRPRPEANPRP | 0.666

Row | Sequence | shrunken log2 fold change
101 | RRIRIRPPRLPRPRPRPCWKPRP | 0.00408
102 | RRIRKRPPRLPRPRPRPRDWPRP | 0.935
103 | RRIRHRPPRLPRPRPRPCWTPRP | -0.237
104 | RRIRSRPPRLPRPRPRPMSEPRP | 0.0489
105 | RRIRGRPPRLPRPRPRPLHIPRP | 0.105
106 | RRIRIRPPRLPRPRPRPMLFPRP | -0.328
107 | RRIRLRPPRLPRPRPRPRKQPRP | 0.0587
108 | RRIRDRPPRLPRPRPRPIVRPRP | -0.00112
109 | RRIRCRPPRLPRPRPRPNLMPRP | -0.323
110 | RRIRNRPPRLPRPRPRPCKTPRP | -0.129
111 | RRIRQRPPRLPRPRPRPFRNPRP | 0.033
112 | RRIRYRPPRLPRPRPRPEYDPRP | -0.104
113 | RRIRDRPPRLPRPRPRPFQLPRP | -0.0537
114 | RRIRVRPPRLPRPRPRPIIYPRP | -0.475
115 | RRIRSRPPRLPRPRPRPKVPPRP | 0.0195
116 | RRIRRRPPRLPRPRPRPESGPRP | 0.545
117 | RRIRGRPPRLPRPRPRPFPYPRP | -0.334
118 | RRIRCRPPRLPRPRPRPEEVPRP | 0.362
119 | RRIRLRPPRLPRPRPRPDWNPRP | -0.689
120 | RRIRHRPPRLPRPRPRPANWPRP | 0.135
121 | RRIRERPPRLPRPRPRPMDFPRP | -0.0298
122 | RRIRYRPPRLPRPRPRPLMIPRP | -1.73
123 | RRIRHRPPRLPRPRPRPVVSPRP | -0.137
124 | RRIRPRPPRLPRPRPRPPFVPRP | 0.139
125 | RRIRGRPPRLPRPRPRPVQTPRP | 0.626

Row | Sequence | shrunken log2 fold change
126 | RRIRERPPRLPRPRPRPECFPRP | 0.435
127 | RRIRSRPPRLPRPRPRPNSLPRP | -0.165
128 | RRIRHRPPRLPRPRPRPMFYPRP | -0.446
129 | RRIRWRPPRLPRPRPRPGVWPRP | 0.519
130 | RRIRMRPPRLPRPRPRPVLCPRP | 0.182
131 | RRIRIRPPRLPRPRPRPPTDPRP | 1.33
132 | RRIRVRPPRLPRPRPRPNYCPRP | -0.157
133 | RRIRGRPPRLPRPRPRPLHCPRP | 0.188
134 | RRIRMRPPRLPRPRPRPWVKPRP | -0.00556
135 | RRIRARPPRLPRPRPRPYTEPRP | -0.583
136 | RRIRIRPPRLPRPRPRPCPSPRP | -0.186
137 | RRIRGRPPRLPRPRPRPDCFPRP | 1.13
138 | RRIRHRPPRLPRPRPRPCLKPRP | -0.16
139 | RRIRERPPRLPRPRPRPLFKPRP | -0.543
140 | RRIRGRPPRLPRPRPRPSNCPRP | 0.0376
141 | RRIRMRPPRLPRPRPRPDSEPRP | 1.82
142 | RRIRERPPRLPRPRPRPAFAPRP | 0.206
143 | RRIRRRPPRLPRPRPRPNEFPRP | -0.0247
144 | RRIRLRPPRLPRPRPRPGADPRP | 0.28
145 | RRIRRRPPRLPRPRPRPAYNPRP | -0.28
146 | RRIRPRPPRLPRPRPRPLWYPRP | -0.496
147 | RRIRGRPPRLPRPRPRPSGFPRP | 0.547
148 | RRIRARPPRLPRPRPRPDHQPRP | -0.0683
149 | RRIRQRPPRLPRPRPRPTEMPRP | -0.149
150 | RRIRWRPPRLPRPRPRPWWFPRP | 0.0217
